Measurements as given in the Human Domainome abundance scans (Beltran et al. 2025).
± gives the uncertainty stated by the source.

B1: KAT8 regulatory NSL complex subunit 2, residues 28 to 91; numbered along this chain, Q9H9L4 (parent)
chain: CAFTHRPCSHPRLEGQEFCIKHILEDKNAPFKQCSYISTKNGKRCPNAAPKPEKKDGVSFCAEH

Variants of: B1
Experiment: abundance fitness (aPCA) (normalised: wild type 0, dead -1); higher = more abundant; growth selection in yeast, the domain comes from the species named
Settings: Homo sapiens

Variant | abundance fitness
CAFTHRPCSHPRLEGQEFCIKHILEDKNAPFKQCSYISTKNGKRCPAAAPKPEKKDGVSFCAEH [N47A] | -0.002 ± 0.059
CAFTHRPCSHPRLEGQEFCIKHILEDKNAPFKQCSYISTKNGKRCPCAAPKPEKKDGVSFCAEH [N47C] | -0.029 ± 0.089
CAFTHRPCSHPRLEGQEFCIKHILEDKNAPFKQCSYISTKNGKRCPDAAPKPEKKDGVSFCAEH [N47D] | 0.017 ± 0.066
CAFTHRPCSHPRLEGQEFCIKHILEDKNAPFKQCSYISTKNGFRCPNAAPKPEKKDGVSFCAEH [K43F] | -0.172 ± 0.076
CAFTHRPCSHPRLEGQEFCIKHILEDKNAPFKQCSYISTKNGRRCPNAAPKPEKKDGVSFCAEH [K43R] | -0.055 ± 0.034
CAFTHRPCSHPRLEGQEFCIKHILEDKNAPFKQCSYISTKNGSRCPNAAPKPEKKDGVSFCAEH [K43S] | -0.042 ± 0.048
CAFTHRPCSHPRLEGQEFCIKHILEDKNAPFKQCSYISTKNGCRCPNAAPKPEKKDGVSFCAEH [K43C] | -0.141 ± 0.08
CAFTHRPCSHPRLEGQEFCIKHILEDKNAPFKQCSYISTKNGIRCPNAAPKPEKKDGVSFCAEH [K43I] | -0.181 ± 0.088
CAFTHRPCSHPRLEGQEFCIKHILEDKNAPFKQCSYISTKNGARCPNAAPKPEKKDGVSFCAEH [K43A] | -0.117 ± 0.056
CAFTHRPCSHPRLEGQEFCIKHILEDKNAPFKQCSYISTKNGYRCPNAAPKPEKKDGVSFCAEH [K43Y] | -0.052 ± 0.072
CAFTHRPCSHPRLEGQEFCIKHILEDKNAPFKQCSYISTKNGGRCPNAAPKPEKKDGVSFCAEH [K43G] | -0.144 ± 0.066
CAFTHRPCSHPRLEGQEFCIKHILEDKNAPFKQCSYISTKNGERCPNAAPKPEKKDGVSFCAEH [K43E] | -0.044 ± 0.078
CAFTHRPCSHPRLEGQEFCIKHILEDKNAPFKQCSYISTKNGDRCPNAAPKPEKKDGVSFCAEH [K43D] | -0.04 ± 0.12
CAFTHRPCSHPRLEGQEFCIKHILEDKNAPFKQCSYISTKNGTRCPNAAPKPEKKDGVSFCAEH [K43T] | -0.028 ± 0.051
CAFTHRPCSHPRLEGQEFCIKHILEDKNAPFKQCSYISTKNGLRCPNAAPKPEKKDGVSFCAEH [K43L] | -0.101 ± 0.052
CAFTHRPCSHPRLEGQEFCIKHILEDKNAPFKQCSYISTKNGHRCPNAAPKPEKKDGVSFCAEH [K43H] | -0.063 ± 0.064
CAFTHRPCSHPRLEGQEFCIKHILEDKNAPFKQCSYISTKNGPRCPNAAPKPEKKDGVSFCAEH [K43P] | -0.072 ± 0.056
CAFTHRPCSHPRLEGQEFCIKHILEDKNAPFKQCSYISTKNGNRCPNAAPKPEKKDGVSFCAEH [K43N] | 0.027 ± 0.095
CAFTHRPCSHPRLEGQEFCIKHILEDKNAPFKQCSYISTKNGQRCPNAAPKPEKKDGVSFCAEH [K43Q] | -0.057 ± 0.13
CAFTHRPCSHPRLEGQEFCIKHILEDKNAPFKQCSYISTKNGWRCPNAAPKPEKKDGVSFCAEH [K43W] | -0.141 ± 0.074
CAFTHRPCSHPRLEGQEFCIKHILEDKNAPFKQCSYISTKNGMRCPNAAPKPEKKDGVSFCAEH [K43M] | -0.203 ± 0.092

Variant | abundance fitness
CAFTHRPCSHPRLEGQEFCIKHILEDKNAPFKQCSYISTKNGVRCPNAAPKPEKKDGVSFCAEH [K43V] | -0.074 ± 0.049
CAFTHRPCSHPRLEGQEFCIKHILEDKNAPFKQCSYISTKNNKRCPNAAPKPEKKDGVSFCAEH [G42N] | -0.117 ± 0.087
CAFTHRPCSHPRLEGQEFCIKHILEDKNAPFKQCSYISTKNKKRCPNAAPKPEKKDGVSFCAEH [G42K] | 0.051 ± 0.078
CAFTHRPCSHPRLEGQEFCIKHILEDKNAPFKQCSYISTKNIKRCPNAAPKPEKKDGVSFCAEH [G42I] | -0.206 ± 0.097
CAFTHRPCSHPRLEGQEFCIKHILEDKNAPFKQCSYISTKNPKRCPNAAPKPEKKDGVSFCAEH [G42P] | -0.1 ± 0.07
CAFTHRPCSHPRLEGQEFCIKHILEDKNAPFKQCSYISTKNRKRCPNAAPKPEKKDGVSFCAEH [G42R] | -0.038 ± 0.048
CAFTHRPCSHPRLEGQEFCIKHILEDKNAPFKQCSYISTKNTKRCPNAAPKPEKKDGVSFCAEH [G42T] | -0.055 ± 0.073
CAFTHRPCSHPRLEGQEFCIKHILEDKNAPFKQCSYISTKNHKRCPNAAPKPEKKDGVSFCAEH [G42H] | -0.141 ± 0.092
CAFTHRPCSHPRLEGQEFCIKHILEDKNAPFKQCSYISTKNLKRCPNAAPKPEKKDGVSFCAEH [G42L] | -0.125 ± 0.052
CAFTHRPCSHPRLEGQEFCIKHILEDKNAPFKQCSYISTKNWKRCPNAAPKPEKKDGVSFCAEH [G42W] | -0.246 ± 0.083
CAFTHRPCSHPRLEGQEFCIKHILEDKNAPFKQCSYISTKNMKRCPNAAPKPEKKDGVSFCAEH [G42M] | -0.139 ± 0.087
CAFTHRPCSHPRLEGQEFCIKHILEDKNAPFKQCSYISTKNYKRCPNAAPKPEKKDGVSFCAEH [G42Y] | -0.094 ± 0.072
CAFTHRPCSHPRLEGQEFCIKHILEDKNAPFKQCSYISTKNQKRCPNAAPKPEKKDGVSFCAEH [G42Q] | -0.008 ± 0.15
CAFTHRPCSHPRLEGQEFCIKHILEDKNAPFKQCSYISTKNVKRCPNAAPKPEKKDGVSFCAEH [G42V] | -0.108 ± 0.054
CAFTHRPCSHPRLEGQEFCIKHILEDKNAPFKQCSYISTKNSKRCPNAAPKPEKKDGVSFCAEH [G42S] | -0.063 ± 0.046
CAFTHRPCSHPRLEGQEFCIKHILEDKNAPFKQCSYISTKNGKRCNNAAPKPEKKDGVSFCAEH [P46N] | -0.014 ± 0.062
CAFTHRPCSHPRLEGQEFCIKHILEDKNAPFKQCSYISTKNGKRCANAAPKPEKKDGVSFCAEH [P46A] | -0.119 ± 0.072
CAFTHRPCSHPRLEGQEFCIKHILEDKNAPFKQCSYISTKNGKRCMNAAPKPEKKDGVSFCAEH [P46M] | -0.1 ± 0.074
CAFTHRPCSHPRLEGQEFCIKHILEDKNAPFKQCSYISTKNGKRCLNAAPKPEKKDGVSFCAEH [P46L] | -0.079 ± 0.042
CAFTHRPCSHPRLEGQEFCIKHILEDKNAPFKQCSYISTKNGKRCINAAPKPEKKDGVSFCAEH [P46I] | -0.073 ± 0.061
CAFTHRPCSHPRLEGQEFCIKHILEDKNAPFKQCSYISTKNGKRCRNAAPKPEKKDGVSFCAEH [P46R] | -0.042 ± 0.043
